One molecule from patent US11666658B2, “Rifamycin analogs and antibody-drug conjugates thereof” (Regeneron Pharmaceuticals, Inc., priority 2018, dated 2023) can be followed below.

Experiment [1] has as its target T1, mouse MSR1 extracellular domain (His9-mMSR1) (Mus musculus, UniProt P30204).
T1 construct: mouse MSR1 extracellular domain expressed with a N-terminal nonahistidine tag; purchased R&D Systems 1797-MS
T1 sequence (P30204 79-458 limits assumed): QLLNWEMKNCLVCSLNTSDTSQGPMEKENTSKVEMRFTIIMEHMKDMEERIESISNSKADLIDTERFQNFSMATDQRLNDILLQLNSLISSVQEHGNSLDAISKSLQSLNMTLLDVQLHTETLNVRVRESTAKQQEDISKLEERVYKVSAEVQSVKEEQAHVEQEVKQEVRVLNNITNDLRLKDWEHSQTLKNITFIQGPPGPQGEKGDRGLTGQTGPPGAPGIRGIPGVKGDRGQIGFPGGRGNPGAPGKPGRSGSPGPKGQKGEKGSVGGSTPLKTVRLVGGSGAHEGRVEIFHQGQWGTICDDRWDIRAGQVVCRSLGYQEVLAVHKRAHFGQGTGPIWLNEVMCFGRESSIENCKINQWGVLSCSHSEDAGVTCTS
Kind of experiment: OCTET bio-layer interferometry binding kinetics, 25° C. To be noted: antibody-capture format. The method, then:
Binding affinities and kinetic constants of human anti-MSR1 antibodies for different MSR1 reagents were determined using a real time, label-free bio-layer interferometry assay on an OCTET® HTX biosensor platform (Pall FortéBio Corp., Menlo Park, Calif.). The experiment was performed at 25° C. in 10 mM HEPES, 150 mM NaCl, 3 mM EDTA, 0.05% v/v Surfactant Tween-20, and 1 mg/mL BSA, pH7.4 (HBS-EBT) buffer with the plate shaking at the speed of 1000 rpm. […] The binding of different MSR1 reagents to the captured anti-MSR1 monoclonal antibody was measured for 4 minutes and the dissociation of monoclonal antibody bound MSR1 reagent was monitored for 8-10 minutes in HBS-EBT buffer.
The association rate (ka) and dissociation rate (kd) were determined by fitting the real-time binding sensorgrams to a 1:1 binding model with mass transport limitation using Scrubber 2.0 c curve-fitting software. Binding dissociation equilibrium constant (KD) and dissociative half-life (t½) were calculated from the kinetic rates as: […]

Experiment [2] has as its target T2, endogenously expressed human MSR1 on PMA-treated THP-1 cells (Homo sapiens, UniProt P21757).
T2 construct: endogenously expressed human MSR1; endogenous in cells; host or cells: THP-1 cells treated with 200 nM PMA
T2 sequence (P21757 1-451): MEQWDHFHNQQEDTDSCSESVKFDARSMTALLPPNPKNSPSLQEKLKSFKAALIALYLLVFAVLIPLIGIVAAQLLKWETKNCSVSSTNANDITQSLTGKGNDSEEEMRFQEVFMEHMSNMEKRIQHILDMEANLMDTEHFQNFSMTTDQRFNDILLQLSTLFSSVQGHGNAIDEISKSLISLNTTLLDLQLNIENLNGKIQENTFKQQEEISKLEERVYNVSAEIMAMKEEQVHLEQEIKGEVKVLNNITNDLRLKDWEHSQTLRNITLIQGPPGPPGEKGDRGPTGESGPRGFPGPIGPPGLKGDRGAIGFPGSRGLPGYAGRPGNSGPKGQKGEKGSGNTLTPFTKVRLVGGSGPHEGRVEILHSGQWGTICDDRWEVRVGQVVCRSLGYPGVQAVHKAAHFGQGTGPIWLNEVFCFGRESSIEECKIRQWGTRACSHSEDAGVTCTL
The experiment in a line: Electrochemiluminescence (ECL) antibody binding assay on cells. The method, then: (§1) The ability of anti-MSR1 monoclonal antibodies to bind to human or monkey MSR1 expressing cells was determined using electrochemiluminescence (ECL) based detection.
(§2) Two cell lines overexpressing either human or monkey MSR1 were generated. To generate the human MSR1 overexpressing cell line, human embryonic kidney (HEK) 293 cells were engineered by transduction with hygromycin resistant lentiviral vector encoding full length human MSR1 (hMSR1, amino acids M1-L451 of accession number NP_619729.1) with a C-terminal Myc tag. The resulting cell line is referred to as HEK293.Myc.hMSR1. Similarly, to generate the monkey MSR1 overexpressing cell line, HEK293 cells were engineered by transfection with the geneticin resistant expression plasmid encoding full length monkey MSR1 (Macaca fascicularis, mfMSR1, amino acids M1-L451 of accession number XP_005562705.1). The resulting cell line is referred to as HEK293.mfMSR1 cells. To measure the ability of antibodies to bind to endogenously expressed human MSR1, THP-1 human monocytic cells were treated with 200 nM of phorbol 12-myristate 13-acetate (PMA; Sigma, Cat #P8139) for 72 hours to induce high MSR1 expression prior to antibody binding.
(§3) Luminescence intensity, measured in relative light units (RLU), was recorded to indicate the binding intensity of each antibody at the range of concentrations.

Experiment [3] concerns parental HEK293 cells. Kind of experiment: Electrochemiluminescence (ECL) antibody binding assay on cells, non-specific binding control. Also on record: species or system human. The method, then: as §1, §2, §3

B1: H1H21234N-N297Q: "An anti-MSR1 antibody H1H21234N containing a N297Q mutation, which eliminates N-linked glycosylation of the Fc at this site" (antibody, V domains shown)
VH: QVQLQESGPGLVKPSETLSLTCTVTGGSISRNYWSWIRQPPGKGLEWIGYIYYSGSIDYNPSLKSRVTISVDTSKNQFSLKLSSMTAADTAVYYCARDRWNWKYGMDVWGQGTTVIVSS
VL: EIVLTQSPGTLSLSPGERATLSCRASQTVRNNYLAWYHQKPGQAPRLLIYGASSRATGIPDRFSGSGSGTDFTLTISRLEPEDFTVYYCHQYGNSPWTFGQGTKMEIKR
On to B1, for which the kd in experiment [1] (analyte His9-mMSR1, * = no dissociation observed, kd manually fixed at 5.00E−05) was 5.00E−05* s^−1. In experiment [1] (analyte His9-mMSR1, NB = no binding, IC = inconclusive), this molecule came in with a ka of 38200 M⁻¹ s⁻¹. The “Ratio of 11 nM Antibody Binding Signal (RLU) to isotype control, PMA-treated THP-1” value in experiment [2] worked out at 25. The “Ratio of 11 nM Antibody Binding Signal (RLU) to isotype control, HEK293” value in experiment [3] was 9.
